Patent US20050209305A1

Biological target: Candida albicans cell surface hemoglobin receptor (Candida albicans)
Assay: cell-based or functional assay

## hemoglobin
  Renilla luciferase activity driven by the CaHMX1 promoter in C. albicans strain CAMP Ki-29, iron-sufficient medium, within 2.5 min of Hb addition: > 10 fold
